The values that follow come from publication doi:10.1101/2023.11.08.566258.

This assay concerns the target Prominin-1 (Prom1) W795R, C-terminally Strep-tagged (human). Nature of the assay: co-IP; EVs from cells co-transfected with Strep-tagged and mScarlet-tagged Prom1, solubilized with 1% DDM; Strep resin; co-purified Prom1-mScarlet measured by fluorescence imaging of the resin beads (CY3 filter set); control with Prom1-mScarlet alone.

On to “Prominin-1 (Prom1) W795R, C-terminally Strep-tagged (natural protein)”, for which the co-purified mScarlet fluorescence, percent of WT Prom1 was determined as 60%.
